For this assay, the target named is recombinant N-terminal His6-tagged human FABP3 (human). Put plainly: MST; Monolith NT.115; 20 nM NT-650-NHS-labelled FABP3, unlabelled peptides 500 µM to 0.0153 µM in two-fold dilutions; 25 °C; PBS with 0.05% Tween 20, pH 7.4; 40% MST power, 60% LED power; 1:1 fit; triplicates.

This passage reports Kd and fold lower binding affinity compared to A-CooP results from article PMC7409020, “Tumor-Targeting Peptides: The Functional Screen of Glioblastoma Homing Peptides to the Target Protein FABP3 (MDGI)” (Cancers, 2020).

Square brackets hold non-standard residues; d marks the D form. Ends that are not written are not given here.

What is called Kd is the concentration at which binding is half-saturated.

Sequence of recombinant N-terminal His6-tagged human FABP3 (human) (P05413 2-133): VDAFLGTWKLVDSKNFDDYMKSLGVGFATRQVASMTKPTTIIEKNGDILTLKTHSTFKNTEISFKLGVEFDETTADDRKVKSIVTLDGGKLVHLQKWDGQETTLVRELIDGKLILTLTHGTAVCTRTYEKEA

As for KACGLSGLGVA-NH2 [KA-CooP], the Kd was found to be 0.63 µM.

With ACGLSGLGVA-NH2 [A-CooP], the Kd stood at 2.18 µM. With ACGLSGLAVA-NH2 [A-[Ala^7]CooP], the Kd came out at 133 µM.

B1: RI-A-CooP (peptide)
peptide: [dA][dV]G[dL]G[dS][dL]G[dC][dA]-NH2
modifications: N-terminus assumed
SMILES: CC(C)C[C@@H](NC(=O)CNC(=O)[C@H](NC(=O)[C@@H](C)N)C(C)C)C(=O)NCC(=O)N[C@H](CO)C(=O)N[C@H](CC(C)C)C(=O)NCC(=O)N[C@H](CS)C(=O)N[C@H](C)C(N)=O
As to B1, the fold lower binding affinity compared to A-CooP stood at 10 fold. Take ACGLSGLGVAK-NH2 [A-CooP-K]: the Kd was 0.07 µM.
